# Key:
# Assay in all cases: SPR
# [1] = target: gp140UG37 (subtype A), gp140 envelope glycoprotein from the HIV-1 group M A-clade isolate 92UG037 (HIV-1)
# [2] = target: CA018 gp140/420 (A/G) (HIV-1)
# [3] = target: gp140CN54 (subtype B'/C), gp140 envelope glycoprotein from the HIV-1 group M CRF07-B/C-clade isolate 97CN54 (HIV-1)
# [4] = target: gp120IIIB (subgroup B) (HIV-1) (UniProt P04578)
Substance,Kd [1] [µM],koff [1] [s⁻¹],kon [1] [M⁻¹ s⁻¹],Kd [2] [µM],koff [2] [s⁻¹],kon [2] [M⁻¹ s⁻¹],Kd [3] [µM],koff [3] [s⁻¹],kon [3] [M⁻¹ s⁻¹],Kd [4] [µM],koff [4] [s⁻¹],kon [4] [M⁻¹ s⁻¹]
mAb 17b (antibody),0.00264,0.000135,51000,0.00107,0.000637,593000,0.00615,0.000171,27700,,,
mAb HJ16 (antibody),0.0885,0.341,424000,1.03,0.0382,37200,,,,0.00303,0.000156,51500
mAb 2G12 (antibody),0.393,0.349,695000,0.537,0.342,500000,,,,,,
sCD4 (2-D) (from UniProt P01730 26-208) (receptor),0.0398,0.000249,6250,,,,,,,0.000942,6e-05,63700
mAb 2F5 (antibody),0.0585,0.422,80900,,,,,,,,,
mAb b12 (antibody),0.233,0.301,1.29e+06,0.0188,0.0271,1.43e+06,0.167,0.00228,13600,,,
